Measurements published in US20170037149A1 (Amgen, published 2017).

Target: T1, human FLT3 (human, UniProt P36888 27-993)
T1 construct: On transfected CHO cells, or on the FLT3 positive human AML cell lines EOL-1 / MV4-11 where the row says so; also called hu FLT3; full length human FLT3
Experiment: FACS, scFv on CHO-human FLT3 pre-incubated with FLT3 ligand (competitor)
Procedure: The detection was performed using mouse anti-FLAG+PE-conjugated goat anti-mouse and the Fluorescence median detected by FACS (median (+ligand)/median (w/o ligand)*100%)
Afterwards cells were not washed but directly stained with FLT3 binder (scFv's). […] As negative control, cells were incubated with an unspecific scFv instead of FLT3 scFv.
For the evaluation of the data, the fluorescence median was detected by FACS.

| median [+ligand]/median [w/o ligand]*100 | Binder |
| --- | --- |
| ≥ 75% | FL-21 scFv (scFv, periplasmic prep) scFv: QVTLKESGPALVKPTETLTLTCTFSGFSLSNARMGVSWIRQPPGKALEWLAHIFSNDEKSYSTSLKSRLTISKDTSKSQVVLTMTNMDPVDTATYYCARIPGYGGNFYYHYYGMDVWGQGTTVTVSSGGGGSGGGGSGGGGSDIQMTQSPSSLSASVGDRVTITCRTSRGIRNDLGWYQQIPGRAPKRLIYAASTLQSGVPSRFSGSGSGTEFTLTISSLQPEDFATYYCLQHNNFPWTFGQGTKVEIK |
| ≥ 75% | FL-50 scFv (scFv, periplasmic prep) scFv: QVTLKESGPTLVKPTETLTLTCTVSGFSLSNARMGVSWIRQPPGKCLEWLAHIFSNDEKSYSTSLKSRLTISKDTSKSQVVLTMTNMDPVDTATYYCARIPGYGGNFYYHYYGMDVWGQGTTVTVSSGGGGSGGGGSGGGGSDIQMTQSPSSLSASVGDRVTITCRASQGIRNDLAWYQQKPGKAPKRLIYAASTVQSGVPSRFSGSGSGTEFALTISSLQPEDFATYYCLQHNSFPWTFGCGTKVDIK |
| ≥ 75% | FL-56 scFv (scFv, periplasmic prep) scFv: QVTLKESGPVLVKPTETLTLTCTVSGFSLRNVRMGVSWIRQPPGKALEWLAHIFSNDEKLYTTSLKSRLTISKDTSKSQVVLTMTNMDPEDTATYYCARIVGYGTGWYGYFDYWGQGTQVTVSSGGGGSGGGGSGGGGSDIQMTQSPSSLSASIGDRVTITCRASQDIRDDLGWYQREPGKAPKRLIYATSIRQSGVPSRFSGSGSGTEFTLTISGLQPEDFATYFCLQHHSFPLTFGGGTKVDIK |
| ≥ 75% | FL-8 scFv (scFv, periplasmic prep) scFv: QVTLKESGPALVKPTETLTLTCTVSGFSLSYARMGVSWIRQPPGKALEWLAQIFSNDEKSYSTSLKSRLTISKGTSNSQVVLTMTNMDPEDTATYYCARIVGYGTGWYGFFDYWGQGILVTVSSGGGGSGGGGSGGGGSDIQMTQSPSSLSASVGDRVTITCRASQGIRNDLGWYQQKPGKAPKRLIYAASSLQSGVPSRFSGSGSGTEFTLTISSLQPEDFATYYCLQHNSYPLTFGGGTKVDIK |
| ≥ 75% | FL-57 scFv (scFv, periplasmic prep) scFv: QVTLKESGPTLVKPTETLTLTCTFSGFSLRYARMGVSWIRQPPGKALEWLAHISSNDEKSFSTALESRLTISTDTSKSQMVLTMTNVDPVDTATYYCARMPGDSNTWRGFFDYWGQGTLVTVSSGGGGSGGGGSGGGGSEIVMTQSPGTLSLSPGERATLSCRTSQTVTNSYIAWYQQRPGQAPRLLIYGTSTRATGIPDRFSGSGSGTDFTLTISRLEPEDFAVYYCQKYGSSPLTFGGGTKLEIK |
| ≥ 75% | FL-51 scFv (scFv, periplasmic prep) scFv: QVTLKESGPTLVKPTETLTLTCTVSGFSLRNVRMGVSWIRQPPGKCLEWLAHISSNDEKSYSTSLRSRLTISTDTSKSQVVLTMTNMDPVDTATYYCARMPGDSNTWRGFFDYWGQGTLVTVSSGGGGSGGGGSGGGGSEIVMTQSPATLSVSPGERATLSCRTSQSVNNNLAWYQQKPGQAPRLLIYGASTRATGIPARFSGSGSGTEFTLTISSLQPEDFATYYCLQHNSYPLTFGCGTKVEIK |
| ≥ 75% | FL-58 scFv (scFv, periplasmic prep) scFv: QVTLKESGPTLVKPTETLTLTCTVSGFSLRNVRMGVSWIRQPPGKALEWLAHISSNDEKSYSTSLRSRLTISTDTSKSQVVLTMTNMDPVDTATYYCARMPGDSNTWRGFFDYWGQGTLVTVSSGGGGSGGGGSGGGGSEIVMTQSPATLSVSPGERATLSCRTSQSVNNNLAWYQQKPGQAPRLLIYGASTRATGIPARFSGSGSGTEFTLTISSLQPEDFATYYCLQHNSYPLTFGGGTKVEIK |
| ≥ 75% | FL-7 scFv (scFv, periplasmic prep) scFv: QVTLKESGPTLVKPTETLTLTCTVSGFSLNNARMGVSWIRQPPGKALEWLAHIFSNDEKSYSTSLKNRLTISKDSSKTQVVLTMTNVDPVDTATYYCARIVGYGTGWFGYFDYWGQGTQVTVSSGGGGSGGGGSGGGGSDIQMTQSPSSLSASVGDRVTITCRASQDIRTDLAWYQQKPGKAPKRLIYAASSLQSGVPSRFSGSGSGTEFTLTISSLQPEDFATYYCLQHNRYPLTFGGGTKVDIK |
| ≥ 75% | FL-1 scFv (scFv, periplasmic prep) scFv: QVTLKESGPVLVKPTETLTLTCTVSGFSLINARMGVSWIRQPPGKALEWLAHIFSNAEKSYRTSLKSRLTISKDTSKSQVVLTMTNMDPVDTATYYCARIPGYGGNGDYHYYGMDVWGQGTTVTVSSGGGGSGGGGSGGGGSDIQMTQSPSSLSASLGDRVTITCRASQGIRNDLGWYQQKPGKAPKRLIYASSTLQSGVPSRFSGSGSGTEFTLTISSLQPEDFATYYCLQHNNFPWTFGQGTKVEIK |
| ≥ 75% | FL-55 scFv (scFv, periplasmic prep) scFv: QVQLVESGGGVVQPGRSLRLSCAASGFTFSSYGMHWVRQAPGKCLEWVAVISYDGSNKYYADSVKGRFTISRDNSKNTLYLQMNSLRAEDTAVYYCARSYGMDVWGQGTTVTVSSGGGGSGGGGSGGGGSDIQMTQSPSSVSASVGDRVTITCRASQGISSWLAWYQQKPGKAPKLLIYAASSLQSGVPSRFSGSGSGTDFTLTISSLQPEDFATYYCQQANSFPWTFGCGTKLEIK |
| ≥ 75% | FL-65 scFv (scFv, periplasmic prep) scFv: QVQLVESGGGVVQPGRSLRLSCAASGFTFSSYGMHWVRQAPGKGLEWVAVISYDGSNKYYADSVKGRFTISRDNSKNTLYLQMNSLRAEDTAVYYCARSYGMDVWGQGTTVTVSSGGGGSGGGGSGGGGSDIQMTQSPSSVSASVGDRVTITCRASQGISSWLAWYQQKPGKAPKLLIYAASSLQSGVPSRFSGSGSGTDFTLTISSLQPEDFATYYCQQANSFPWTFGQGTKLEIK |
| ≥ 75% | FL-60 scFv (scFv, periplasmic prep) scFv: QVTLKESGPALVKPTQTLTLTCTFSGFSLSNARMGVSWIRQPPGKALEWLAHIFSNDEKSYSTSLKSRLTISKDTSKRQVVLTMTNMDPVDTATYYCARMVGYGSGWYAYFDYWGQGTLVTVSSGGGGSGGGGSGGGGSDIVMTQTPLSLSVTPGQPASISCRSSQSLLHSNGYNYLYWYLQKPGQPPQLLIYEVSNRFSGVPDRFSGSGSGTDFTLKISRVEAEDVGVYYCMQALQTPLTFGGGTKVEIK |
| ≥ 75% | FL-63 scFv (scFv, periplasmic prep) scFv: QVQLVESGGGVVQPGRSLRLSCAASGFTFSSYGMHWVRQAPGKGLEWVAVISYDGSNEFYADSVKGRFTISRDNSKNTLYLQMNSLRAEDTAVYYCARGGEITMVRGVIGYYYYGMDVWGQGTTVTVSSGGGGSGGGGSGGGGSDIQMTQSPSSLSASVGDRVTITCRTSQSISSYLNWYQQKPGKAPKLLIYAASSLQSGVPSRFSGSGSGTEFTLTISSLQPEDFATYYCLQHNSYPLTFGGGTKVDIK |
| ≥ 75% | FL-64 scFv (scFv, periplasmic prep) scFv: QVQLVESGGGVVQPGRSLRLSCAASGFTFSSYGMHWVRQAPGKGLEWVAVISYDGSNEFYADSVKGRFTISRDNSKNTLYLQMNSLRAEDTAVYYCARGGEITMVRGVIGYYYYGMDVWGQGTTVTVSSGGGGSGGGGSGGGGSDIQMTQSPSSLSASVGNRVTITCRASQSISSYLNWYQQKPGKAPKLLIYAASSLQSGVPSRFSGSGSGTEFTLTISSLQPEDFATYYCLQHNSYPLTFGGGTKVDIK |
| ≥ 75% | FL-53 scFv (scFv, periplasmic prep) scFv: QVQLVESGGGVVQPGRSLRLSCAASGFTFSSYGMHWVRQAPGKCLEWVAVISYDGSNEFYADSVKGRFTISRDNSKNTLYLQMNSLRAEDTAVYYCARGGEITMVRGVIGYYYYGMDVWGQGTTVTVSSGGGGSGGGGSGGGGSDIQMTQSPSSLSASVGDRVTITCRTSQSISSYLNWYQQKPGKAPKLLIYAASSLQSGVPSRFSGSGSGTEFTLTISSLQPEDFATYYCLQHNSYPLTFGCGTKVDIK |
| ≥ 75% | FL-61 scFv (scFv, periplasmic prep) scFv: QVQLVESGGGVVQPGRSLRLSCAASGFTFSSYGMHWVRQAPGKGLEWVAVISYDGSNEFYADSVKGRFTISRDNSKNTLYLQMNSLRAEDTAVYYCARGGEITMVRGVIGYYYYGMDVWGQGTTVTVSSGGGGSGGGGSGGGGSDIQMTQSPSSLSASVGDRVTITCRASQSISSYLNWYQQKPGKAPKLLIYAASSLQSGVPSRFSGSGSGTEFTLTISSLQPEDFATYYCLQHNSYPLTFGGGTKVEIK |
| ≥ 75% | FL-54 scFv (scFv, periplasmic prep) scFv: QVQLVESGGGVVQPGRSLRLSCAASGFTFSSYGMHWVRQAPGKCLEWVAVISYDGSNEFYADSVKGRFTISRDNSKNTLYLQMNSLRAEDTAVYYCARGGEITMVRGVIGYYYYGMDVWGQGTTVTVSSGGGGSGGGGSGGGGSEIVMTQSPATLSVSPGERATLSCRASQGVRNNLVWYQQKPGQAPRLLIYGASTRATGIPARFSGSGSGTEFTLTISSLQSEDFATYYCLQHNSYPLTFGCGTKVEIK |
| ≥ 75% | FL-62 scFv (scFv, periplasmic prep; also called F-62) scFv: QVQLVESGGGVVQPGRSLRLSCAASGFTFSSYGMHWVRQAPGKGLEWVAVISYDGSNEFYADSVKGRFTISRDNSKNTLYLQMNSLRAEDTAVYYCARGGEITMVRGVIGYYYYGMDVWGQGTTVTVSSGGGGSGGGGSGGGGSEIVMTQSPATLSVSPGERATLSCRASQGVRNNLVWYQQKPGQAPRLLIYGASTRATGIPARFSGSGSGTEFTLTISSLQSEDFATYYCLQHNSYPLTFGGGTKVEIK |
| ≥ 75% | FL-3 scFv (scFv, periplasmic prep) scFv: QVTLKESGPALVKPTETLTLTCTVSGFSLSNARMAVSWIRQPPGKALEWLAHIFSNGEKSYSTSLKSRLTISKDTSKTQVVLTMTNTDPVDTATYFCARIVGYSDWLLPFDHWGQGIMVTVSSGGGGSGGGGSGGGGSDIQMTQSPSSLSASVGDRVTITCRASQNINRFLNWYQQKPGKAPKLLIYAASSLQSGVPSRFSGSGSGTDFTLTISSLQPEDFATYYCLQHNSYPWTFGQGTKVDIK |
| ≥ 75% | FL-2 scFv (scFv, periplasmic prep) scFv: QVTLKESGPVLVKPTETLTLTCTVSGFSLRNARMGVSWIRQPPGKALEWLAHIFSNDEKTYSTSLKSRLTISRDTSKGQVVLTMTKMDPVDTATYYCARIPYYGSGSHNYGMDVWGQGTTVTVSSGGGGSGGGGSGGGGSDIQMTQSPSSLSASVGDRVTITCRASQDIRNDFGWYQQKPGKAPQRLLYAASTLQSGVPSRFSGSGSGTEFTLTISSLQPEDFATYYCLQYNTYPWTFGQGTKVEIK |
